# Measurements published in patent US20220175839.
# Assays:
# Assay in all cases: cell_activity
# TALEN 103087 (synthetic) = settings: pair with 103088; K562, 400 ng
# TALEN 103076 (synthetic) = settings: pair with 103075; K562, 400 ng
# TALEN 103064 (synthetic) = settings: pair with 103063; K562, 400 ng
# TALEN 103065 (synthetic) = settings: pair with 103066; K562, 400 ng
# TALEN 103077 (synthetic) = settings: pair with 103078; K562, 400 ng
# TALEN 103070 (synthetic) = settings: pair with 103069; K562, 400 ng
# TALEN 103057 (synthetic) = settings: pair with 103058; K562, 400 ng
# TALEN 103069 (synthetic) = settings: pair with 103070; K562, 400 ng
# TALEN 103063 (synthetic) = settings: pair with 103064; K562, 400 ng
# TALEN 103051 (synthetic) = settings: pair with 103052; K562, 400 ng
# TALEN 103049 (synthetic) = settings: pair with 103050; K562, 400 ng
# TALEN 103053 (synthetic) = settings: pair with 103054; K562, 400 ng
# TALEN 103055 (synthetic) = settings: pair with 103056; K562, 400 ng
# TALEN 103079 (synthetic) = settings: pair with 103080; K562, 400 ng
# TALEN 103074 (synthetic) = settings: pair with 103073; K562, 400 ng
# TALEN 103085 (synthetic) = settings: pair with 103086; K562, 400 ng
# TALEN 103082 (synthetic) = settings: pair with 103081; K562, 400 ng
# TALEN 103052 (synthetic) = settings: pair with 103051; K562, 400 ng
# TALEN 103050 (synthetic) = settings: pair with 103049; K562, 400 ng
# TALEN 103061 (synthetic) = settings: pair with 103062; K562, 400 ng
# TALEN 103073 (synthetic) = settings: pair with 103074; K562, 400 ng
# [1] = tested on: SBS55254 ZFN (TCRA) (synthetic); settings: pair with 55248; T cells, TRAC 180, day 10
# TALEN 103067 (synthetic) = settings: pair with 103068; K562, 400 ng
# TALEN 103075 (synthetic) = settings: pair with 103076; K562, 400 ng
# TALEN 103071 (synthetic) = settings: pair with 103072; K562, 400 ng
# TALEN 103058 (synthetic) = settings: pair with 103057; K562, 400 ng
# TALEN 103056 (synthetic) = settings: pair with 103055; K562, 400 ng
# TALEN 103054 (synthetic) = settings: pair with 103053; K562, 400 ng
# TALEN 103084 (synthetic) = settings: pair with 103083; K562, 400 ng
# TALEN 103086 (synthetic) = settings: pair with 103085; K562, 400 ng
# TALEN 103081 (synthetic) = settings: pair with 103082; K562, 400 ng
# TALEN 103072 (synthetic) = settings: pair with 103071; K562, 400 ng
# TALEN 103062 (synthetic) = settings: pair with 103061; K562, 400 ng
# TALEN 103068 (synthetic) = settings: pair with 103067; K562, 400 ng
# TALEN 103083 (synthetic) = settings: pair with 103084; K562, 400 ng
# TALEN 103066 (synthetic) = settings: pair with 103065; K562, 400 ng
sequence,measurement,setting,value
ATCCGACATTGAAGTTGACTT (double strand) [TALEN 103087 site],activity,TALEN 103087 (synthetic),10.5 % indel
GTCAACTTCAATGTCGGATGG (double strand) [TALEN 103076 site],activity,TALEN 103076 (synthetic),1.5 % indel
ATGACGTGAGTAAACCTGAAT (double strand) [TALEN 103064 site],activity,TALEN 103064 (synthetic),14.8 % indel
TTCCTCAGGTACTCCAAAGAT (double strand) [TALEN 103065 site],activity,TALEN 103065 (synthetic),41.2 % indel
CTATGTGTCTGGGTTTCATCC (double strand) [TALEN 103077 site],activity,TALEN 103077 (synthetic),17.1 % indel
TTTCCATTCTCTGCTGGATGA (double strand) [TALEN 103070 site],activity,TALEN 103070 (synthetic),27.9 % indel
CTGTGCTCGCGCTACTCTCTC (double strand) [TALEN 103057 site],activity,TALEN 103057 (synthetic),46.2 % indel
GTACTCCAAAGATTCAGGTTT (double strand) [TALEN 103069 site],activity,TALEN 103069 (synthetic),27.9 % indel
TTTTCCCGATATTCCTCAGGT (double strand) [TALEN 103063 site],activity,TALEN 103063 (synthetic),14.8 % indel
CTCCGTGGCCTTAGCTGTGCT (double strand) [TALEN 103051 site],activity,TALEN 103051 (synthetic),63.8 % indel
ATTCGGGCCGAGATGTCTCGC (double strand) [TALEN 103049 site],activity,TALEN 103049 (synthetic),19.5 % indel
GTGGCCTTAGCTGTGCTCGCG (double strand) [TALEN 103053 site],activity,TALEN 103053 (synthetic),32.4 % indel
CTTAGCTGTGCTCGCGCTACT (double strand) [TALEN 103055 site],activity,TALEN 103055 (synthetic),25.1 % indel
ATGTGTCTGGGTTTCATCCAT (double strand) [TALEN 103079 site],activity,TALEN 103079 (synthetic),42.3 % indel
ATAGCAATTCAGGAAATTTGA (double strand) [TALEN 103074 site],activity,TALEN 103074 (synthetic),3 % indel
ATCCATCCGACATTGAAGTTG (double strand) [TALEN 103085 site],activity,TALEN 103085 (synthetic),3.9 % indel
CTCCATTCTTCAGTAAGTCAA (double strand) [TALEN 103082 site],activity,TALEN 103082 (synthetic),27.5 % indel
CTCCAGGCCAGAAAGAGAGAG (double strand) [TALEN 103052 site],activity,TALEN 103052 (synthetic),63.8 % indel
GTAGCGCGAGCACAGCTAAGG (double strand) [TALEN 103050 site],activity,TALEN 103050 (synthetic),19.5 % indel
GTGTCTTTTCCCGATATTCCT (double strand) [TALEN 103061 site],activity,TALEN 103061 (synthetic),22.9 % indel
CTCACGTCATCCAGCAGAGAA (double strand) [TALEN 103073 site],activity,TALEN 103073 (synthetic),3 % indel
CTCCTGAAAGTGGCCGGGTTTAATCTGC (double strand) [TCRA 55254 site],activity,[1],66 % indel
CTCAGGTACTCCAAAGATTCA (double strand) [TALEN 103067 site],activity,TALEN 103067 (synthetic),49.3 % indel
TTCCTGAATTGCTATGTGTCT (double strand) [TALEN 103075 site],activity,TALEN 103075 (synthetic),1.5 % indel
CTCCAAAGATTCAGGTTTACT (double strand) [TALEN 103071 site],activity,TALEN 103071 (synthetic),13.3 % indel
CTCACGCTGGATAGCCTCCAG (double strand) [TALEN 103058 site],activity,TALEN 103058 (synthetic),46.2 % indel
CTGGATAGCCTCCAGGCCAGA (double strand) [TALEN 103056 site],activity,TALEN 103056 (synthetic),25.1 % indel
ATAGCCTCCAGGCCAGAAAGA (double strand) [TALEN 103054 site],activity,TALEN 103054 (synthetic),32.4 % indel
TTCTCTCTCCATTCTTCAGTA (double strand) [TALEN 103084 site],activity,TALEN 103084 (synthetic),32.2 % indel
TTCAATTCTCTCTCCATTCTT (double strand) [TALEN 103086 site],activity,TALEN 103086 (synthetic),3.9 % indel
GTCTGGGTTTCATCCATCCGA (double strand) [TALEN 103081 site],activity,TALEN 103081 (synthetic),27.5 % indel
TTGACTTTCCATTCTCTGCTG (double strand) [TALEN 103072 site],activity,TALEN 103072 (synthetic),13.3 % indel
GTGAGTAAACCTGAATCTTTG (double strand) [TALEN 103062 site],activity,TALEN 103062 (synthetic),22.9 % indel
ATTCTCTGCTGGATGACGTGA (double strand) [TALEN 103068 site],activity,TALEN 103068 (synthetic),49.3 % indel
TTTCATCCATCCGACATTGAA (double strand) [TALEN 103083 site],activity,TALEN 103083 (synthetic),32.2 % indel
CTCTGCTGGATGACGTGAGTA (double strand) [TALEN 103066 site],activity,TALEN 103066 (synthetic),41.2 % indel
